1 substance from patent US8394771 can be followed below.

For this experiment, the target named is ICAM-1 on HeLa cells (human) (UniProt P05362). In words: cell-based or functional assay.

Where only a bound is given, the exact number is not on record here.

The substance “bivalent anti-ICAM-1 monoclonal antibody RR/1 (Chemicon)” displayed an EC50, protection of HeLa cells from HRV15 infection greater than 10 nM.
